Experiment [1] concerns the target fusion protein in which the extracellular domain of Cynomolgus monkey GITR is fused with the domain of mouse IgG1-Fc (Cynomolgus monkey). As to the kind of experiment: ELISA, cynoGITR-muFc coated at 5 ug/ml, anti-human IgG-HRP (FIG. 8). In general terms: ELISA stands for enzyme-linked immunosorbent assay.
Experiment [2] shares this target. As to the kind of experiment: ELISA, cynoGITR-muFc coated at 5 ug/ml, anti-human IgG-HRP (FIG. 7).

The record followed here is patent US20220356259A1.

Positions count from the first letter of the chain named.

fusion protein in which the extracellular domain of Cynomolgus monkey GITR is fused with the domain of mouse IgG1-Fc (Cynomolgus monkey), sequence (chain, as listed by the source limits assumed, form in doubt): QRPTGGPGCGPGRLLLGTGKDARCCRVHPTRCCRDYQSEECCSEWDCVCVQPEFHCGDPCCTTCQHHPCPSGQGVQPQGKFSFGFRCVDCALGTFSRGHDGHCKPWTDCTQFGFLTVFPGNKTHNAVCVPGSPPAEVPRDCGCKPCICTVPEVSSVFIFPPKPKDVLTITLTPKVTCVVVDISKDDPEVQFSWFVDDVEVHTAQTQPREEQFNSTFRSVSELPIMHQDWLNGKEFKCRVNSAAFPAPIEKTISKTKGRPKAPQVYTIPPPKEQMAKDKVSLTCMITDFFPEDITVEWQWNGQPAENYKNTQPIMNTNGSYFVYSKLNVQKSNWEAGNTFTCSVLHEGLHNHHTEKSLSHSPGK

B1: isolated antigen-binding protein C3E2 (antibody, human IgG1, kappa, V domains shown)
VH: QVQLQESGPGILQPSQTLSLTCSFSGFSLSTFGMGVGWIRQPSGKGLEWLVLILWNDIKYYNPALKSLLTVSKDTSNNQVFLKIASVDTADTATYYCARVDGYYGYFDVWGTGTTVTVSS
VL: DIVMTQSPLSLPVSLGDQASISCRSSQTIVHSNGNTYLEWYLQKPGQSPKLLIYKVSNRFSGVPDRFSGSGSGTDFTLKISRVEAEDLGVYYCFQGSHVPWTFGGGTKLEIKR
As a reminder, the EC50 is the concentration at which the effect is half-maximal. B1: the EC50 in experiment [1] was determined as 0.0747 µg/mL; in experiment [2], 0.0704 µg/mL.

B2: isolated antigen-binding protein 3E2 1-2 (antibody, human IgG1, kappa, V domains shown)
VH: QVTLQESGPTLVKPTQTLTLTCTFSGFSLSTFGMGVGWIRQPPGKGLEWLVLILWNDIKYYNPALKSLLTVTKDTSKNQVVLTITNMDPVDTATYYCARVDGYYGYFDVWGQGTMVTVSS
VL: B1 VL with S14T, D17Q, Q18P, K44R, L88V, L109V
Turning to B2, in experiment [2], the EC50 came to 0.0517 µg/mL.
